Assay [1] has as its target 426c Env trimeric gp140 (wild type) (HIV-1 clade C, isolate 426c (HVTN503 participant)) (UniProt M4Q8P8). The assay can be described thus: BLI.
Assay [2] deals with mature NIH45-46 IgG (human). In words: BLI. (In general: BLI is a label-free optical method that tracks binding on a fibre tip over time.)

Regarding mature NIH45-46 IgG (antibody), in assay [1], the dissociation constant (Kd) worked out at 10.6 nM.
Consider “426c Env trimeric gp140 lacking the NLGS at position 276 (N276D) (natural protein)”, for which, in assay [2], the Kd was determined as 3.66 nM.

For orientation: Kd means the equilibrium constant for the complex coming apart. Higher therefore signals weaker binding.

Values taken from article PMC3620356.
